Patent publication US20230242665A1 (SYSTIMMUNE, published 2023)

T1: TROP2 antigen (extracellular region of TROP2, expressed in 293F cells) (human, UniProt P09758 27-274)
T1 construct: extracellular domain; The antigen was coated on ELISA plates; For the Octet assay it was biotin-labelled and immobilized on streptavidin sensors; also called TROP2 protein
T1 sequence (looked up): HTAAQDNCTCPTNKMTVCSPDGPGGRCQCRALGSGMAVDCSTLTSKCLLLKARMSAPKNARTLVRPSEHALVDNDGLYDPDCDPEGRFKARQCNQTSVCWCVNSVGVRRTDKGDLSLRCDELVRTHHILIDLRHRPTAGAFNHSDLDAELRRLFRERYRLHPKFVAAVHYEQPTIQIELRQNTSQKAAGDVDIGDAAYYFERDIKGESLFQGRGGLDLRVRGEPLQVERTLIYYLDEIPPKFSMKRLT

T2: TROP2 on BXPC-3 and MCF-7 cells (human, UniProt P09758 27-323)
T2 construct: whole, on cells; also called BxPC-3 cells; MCF-7 cells (positive cells)
T2 sequence (looked up): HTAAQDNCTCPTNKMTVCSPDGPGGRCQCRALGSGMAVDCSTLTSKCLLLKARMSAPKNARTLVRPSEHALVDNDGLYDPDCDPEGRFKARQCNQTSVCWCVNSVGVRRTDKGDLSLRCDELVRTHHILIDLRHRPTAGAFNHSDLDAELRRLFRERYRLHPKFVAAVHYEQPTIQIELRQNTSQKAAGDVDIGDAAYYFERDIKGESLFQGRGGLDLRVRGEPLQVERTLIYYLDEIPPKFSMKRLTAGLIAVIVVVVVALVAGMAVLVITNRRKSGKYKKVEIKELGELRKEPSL


Experiments:
[1] = target: T1, TROP2 antigen (extracellular region of …); experiment: ELISA, TROP2-coated plate, anti-human Fc HRP
[2] = target: T1, TROP2 antigen (extracellular region of …); experiment: ELISA, TROP2-coated plate, chimeric antibody, anti-human Fc HRP
Experimental: (§1) Dilute the chimeric antibody to a concentration of 50 ug/ml, add it to wells A1˜H1 on the TROP2-coated ELISA plate, and then perform a 3-fold horizontal dilution from A1 to A12; incubate at 37° C. for 1 hr, then rinse and add Mouse anti-human Fc HRP-labeled antibody was incubated at 37° C. for color development.

[3] = target: T1, TROP2 antigen (extracellular region of …); experiment: ELISA on a TROP2-coated plate, anti-human Fc HRP detection
Experimental: as §1

[4] = target: T1, TROP2 antigen (extracellular region of …); experiment: competition ELISA on TROP2-coated plate; competitor: 7F11-humanized-biotin
[5] = target: T1, TROP2 antigen (extracellular region of …); experiment: BLI (ForteBio Octet), biotin-labelled antigen on streptavidin sensor, antibody in solution
Source text: Pall ForteBio Octet optical analysis technology platform is used to evaluate the absolute affinity of antibody-antigen binding. In this method, the biotin-labeled antigen is immobilized on the surface of the streptavidin biosensor chip, the baseline is balanced for 180 seconds, and then it binds with the antibody diluted in the solution concentration gradient for 30 seconds, which increases the optical thickness of the chip, resulting in The wavelength shifts (Δλ), and then enters the dissociation phase of 30 sec. The interaction between the Trop2 antigen and the corresponding antibody is measured in real time, and the specificity of binding, binding rate, dissociation rate or sample concentration are precisely and accurately measured at each concentration. After summarizing the k-on and k-off values under at least 5 concentration gradients, the KD binding constant is obtained.

[6] = target: T2, TROP2 on BXPC-3 and MCF-7 cells; experiment: flow cytometry on MCF-7 cells, 1 hr at 4 C, FITC-labelled secondary antibody
[7] = target: T2, TROP2 on BXPC-3 and MCF-7 cells; experiment: flow cytometry on BXPC-3 cells, 1 hr at 4 C, FITC-labelled secondary antibody
[8] = target: T1, TROP2 antigen (extracellular region of …); experiment: competition ELISA on TROP2-coated plate; competitor: 0.5 ng/ml 4D3-humanized-biotin
Experimental: The 4D3-humanized antibody was labeled with biotin, and the inflection point value of the binding curve was determined by ELISA to be 0.5 ng/ml. Prepare an ELISA blocking solution containing 0.5 ng/ml 4D3 biotin-labeled antibody, and configure 50 ug/ml of competing antibodies 4D3-chimeric and 4D3-humanized on the basis of this solution. Add the solution containing biotin-labeled antibody and competing antibody to A1˜A12, 150 ul per well, then aspirate 50 ul and add to B2˜B12, mix well with the pre-added biotin antibody solution with a volume of 100 ul, and then dilute 3 times in sequence To H1˜H12, incubate at 37° C. for 1 hr, then wash and incubate the […], incubate at 37° C. for 1 hr, then wash 3 times, perform color development for 25 min and read the value.
FIG. 12: 4D3-humanized-biotin antibodies compete with ch4D3 and hum4D3 antibodies at 0.02-50 ug/ml, respectively. The two competing antibodies show the same degree of competitive activity and bind to the same epitope.

[9] = target: T2, TROP2 on BXPC-3 and MCF-7 cells; experiment: flow cytometry on BXPC-3 cells, 1 hr at 4 C, FITC-labelled secondary antibody; remark: listed apart in the source

EC50 [1] [µg/mL]	EC50 [2] [µg/mL]	EC50 (read off the curve) [3] [µg/mL]	EC50 [4] [µg/mL]	Kd [5] [nM]	koff [5] [s⁻¹]	kon [5] [M⁻¹ s⁻¹]	EC50 (read off the curve) [6] [µg/mL]	EC50 (read off the curve) [7] [µg/mL]	EC50 [8] [µg/mL]	EC50 (read off the curve) [9] [µg/mL]	Binder
0.061	0.071	~0.07	0.732	0.0611	1.45e-05	243000					7F11 chimeric antibody (antibody, human IgG1, kappa, V domains shown, The entries begin with a leader (signal) peptide; also called ch7F11) VH: QVQLQQSGPEVVKPGASVKMSCKASGYTFTDHVISWVKQRTGQGLEWIGQIYPGSDNSYYSEKLKDKATLTADKSSNTAYMQLVSLTSEDSAVYFCAREGYGYGKNGVGYAMDYWGQGTSVTVSS VL: SIVMTQTPKFLLVSAGDRVTITCKASQSVSNDVVWYQQKPGQSPKLLIYYASNRYTGVPDRFTGSGYGTDFTFTISTAQAEDLAVYFCQQDYSSPWTFGGGTKLEIKR
0.0601			0.856	0.0994	1.85e-05	186000	~0.04	~0.05			7F11 humanized antibody (antibody, V domains shown, also called Hu7F11; hu7F11) VH: QVQLVQSGAEVKKPGASVKVSCKASGYTFTDHVISWVRQATGQGLEWMGQIYPGSDNSYYAQKFQGRVTLTADKSINTAYMELSSLRSEDTAVYYCAREGYGYGKNGVGYAMDYWGQGTLVTVSS VL: DIVMTQSPDSLAVSLGERATINCKASQSVSNDVVWYQQKPGQPPKLLIYYASNRYTGVPDRFSGSGYGTDFTLTISSLQAEDVAVYYCQQDYSSPWTFGGGTKVEIKR
0.0502				30.7	0.00428	139000			0.326	~0.04	4D3 humanized antibody (antibody, V domains shown, also called Hu4D3; hu4D3) VH: QVQLVQSGAEVKKPGASVKLSCKASGYTFTSFDINWVRQAPEQRLEWMGWIFPGDGNTKYSQKFQGRATITRDTSASTAYMELSSLRSEDTAVYYCVRGEALYYFDYWGQGTLVTVSS VL: DIQMTQSPSSLSASVGDRVTITCRASQDINKYLAWYQQKPGKVPKLLIYSTSTLQSGVPSRFSGSGSGTDFTLTISSLQPEDVATYYCLQYDDLFTFGQGTKLEIKR
0.056	0.047	~0.05		6.89	0.00162	235000			0.336		4D3 chimeric antibody (antibody, human IgG1, kappa, V domains shown, The entries begin with a leader (signal) peptide; also called ch4D3) VH: QVQLQQSGAELVKPGASVKLSCKASGYTFTSFDINWVRQRPEQGLEWIGWIFPGDGNTKSNEKFKGKATLTTDKSSSTAYMQLSRLTSEDSAVYFCVRGEALYYFDYWGPGTTLTVSS VL: DIQMTQSPSSLSASLGGKVTITCKPSQDINKYIAWYQHKPGKGPRLLIHSTSTLQPGIPSRFSGSGSGRDYSFTISNLEPEDIATYYCLQYDDLFTFGSGTKLEIKR
